The results in this text go back to patent US20240075137A1 (COMPUGEN, published 2024).

Where two headings read alike, the source gives them in different places.

The target of assay [1] is T1, human PVRIG on cells (human, UniProt Q6DKI7 1-326).
T1 construct: whole, on cells; over-expressed on HEK cells or endogenous on Jurkat and CD8 T cells; also called hPVRIG; HEK hPVRIG cells
T1 sequence (looked up): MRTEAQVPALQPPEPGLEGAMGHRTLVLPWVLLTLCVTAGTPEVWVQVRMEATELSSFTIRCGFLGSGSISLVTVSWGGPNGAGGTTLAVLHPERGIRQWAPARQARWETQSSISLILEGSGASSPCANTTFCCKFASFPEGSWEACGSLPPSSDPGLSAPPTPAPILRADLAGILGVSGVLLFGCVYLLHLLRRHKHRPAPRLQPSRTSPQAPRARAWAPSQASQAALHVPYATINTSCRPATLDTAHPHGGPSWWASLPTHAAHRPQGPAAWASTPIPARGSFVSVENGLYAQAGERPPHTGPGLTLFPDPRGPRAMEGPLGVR
Briefly: FACS, human PBMC, CD8+ T cells, 10ug/ml. A general note: A flow cytometer gives signals particle by particle.

Assay [2] deals with T1, human PVRIG on cells. Briefly: FACS, HEK hPVRIG over HEK parental cells, 3.3ug/ml.
Assay [3] has as its target T1, human PVRIG on cells. Briefly: FACS, human PBMC, CD56 int. NK cells, 10ug/ml.
The target of assay [4] is T1, human PVRIG on cells. Briefly: FACS, HEK hPVRIG cells (HEK OE).
Assay [5] has as its target T2, PVRIG (FACS-based competition assay of FIGS. 7 and 15) (Homo sapiens, UniProt Q6DKI7).
T2 construct: made because the format of the assay is only described in U.S. Ser. No. 15/048,967; also called human PVRIG
T2 sequence (receptor, looked up): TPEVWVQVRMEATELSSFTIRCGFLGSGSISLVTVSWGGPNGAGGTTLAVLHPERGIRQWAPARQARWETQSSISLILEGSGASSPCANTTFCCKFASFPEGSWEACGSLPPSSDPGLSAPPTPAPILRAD
Briefly: FACS-based competition assay of PVRIG blocking; format and competitor not given.

For assay [6], the target named is T1, human PVRIG on cells. Briefly: FACS, Jurkat cells, relative to control, 3.3ug/ml.
In assay [7] the target is T1, human PVRIG on cells. Briefly: FACS, human PBMC, CD56 int. NK cells, 10ug/ml. This is another data set of the same source.
Assay [8] addresses T1, human PVRIG on cells. Briefly: FACS, human PBMC, CD8+ T cells, 10ug/ml. This is another data set of the same source.
Assay [9] has as its target T3, cynomolgus PVRIG on cells (cynomolgus, UniProt A0A2K5WVV8 41-322).
T3 construct: whole, on cells; also called cPVRIG; expi cPVRIG cells
T3 sequence: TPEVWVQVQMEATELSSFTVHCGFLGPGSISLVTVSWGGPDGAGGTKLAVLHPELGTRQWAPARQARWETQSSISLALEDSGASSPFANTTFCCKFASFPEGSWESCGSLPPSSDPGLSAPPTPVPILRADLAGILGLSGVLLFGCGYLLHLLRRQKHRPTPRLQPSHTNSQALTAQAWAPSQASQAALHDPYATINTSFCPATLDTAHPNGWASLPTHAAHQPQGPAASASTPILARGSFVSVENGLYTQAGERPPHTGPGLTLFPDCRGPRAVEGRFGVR
Briefly: FACS, expi cPVRIG over expi parental cells, 3.3ug/ml.

Assay [10] deals with T3, cynomolgus PVRIG on cells. The description is as above. This is another data set of the same source.
The target of assay [11] is T2, PVRIG (FACS-based competition assay of …). Briefly: FACS-based competition assay of PVRIG blocking; format and competitor not given. This is another data set of the same source.
Assay [12] concerns the target T3, cynomolgus PVRIG on cells. Briefly: FACS, expi cPVRIG over expi parental cells, 3.3ug/ml. The source holds these as a separate data set.
The target in the next assay is T4, human TIGIT on cells (human, UniProt Q495A1 22-141).
T4 construct: also called Expi293 human TIGIT over-expressing cells
T4 sequence: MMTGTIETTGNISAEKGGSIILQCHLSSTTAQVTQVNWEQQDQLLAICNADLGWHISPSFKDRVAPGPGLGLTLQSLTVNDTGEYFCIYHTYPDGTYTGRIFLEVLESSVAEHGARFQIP
Briefly: flow cytometry of fab; MFI on human TIGIT over-expressing Expi293 / MFI on parental Expi293.

Assay [13] concerns the target T1, human PVRIG on cells. Briefly: FACS, human PBMC, CD56 int. NK cells, 10ug/ml. This is another data set of the same source.
The target in assay [14] is T1, human PVRIG on cells. Briefly: FACS, human PBMC, CD8+ T cells, 10ug/ml. This is another data set of the same source.

As usually defined, the EC50 is the midpoint of the concentration-response curve. By IC50 is commonly meant the concentration that gives 50% inhibition. Read a high IC50 as weaker potency.

B1: CHA.7.534 (antibody, V domains shown)
VH: EVQLQQSGAELVKPGASVRLSCTASGFSIRDTYIHWVKQRPEQGLDWIGKIDPANGKSEYDPKFQGRATMTTDTSSNTAYLQLSSLTSEDTAVYYCTRYGYYPYFDVWGAGTTVTVFS
VL: SIVMTQTPKFLLVSAGDRVAITCKASQSVRHDVVWYQQKPGQSPKLLIYYASSRYTGVPDRFTGSGYGTDFTFTISTVQAEDLALYFCLQDFSSPWTFGGGTKLEIK
For the molecule B1, the “gMFIr Human CD8+ T cells” value with human PVRIG on cells [1] and in the assay with human PVRIG on cells [8] was 1.96 in each case. The “gMFIr HEK OE/par” value with human PVRIG on cells [2] is 43.7. Also, the “gMFIr Human CD56 int. NK” value with human PVRIG on cells [3] and with human PVRIG on cells [7] was 2.6 each time. Besides, it took 1.87 nM to reach a half-maximal effect with human PVRIG on cells [4] (EC50). Besides, the IC50 in [5] and in assay [11] was 181 nM throughout. Further, the “gMFIr Jurkat” value with human PVRIG on cells [6] turned out to be 5.05. Besides, the “gMFIr Expi cyno OE/par” value in [9] and in [10] was 46.3 each time.

B2: CHA.7.506 (antibody, V domains shown)
VH: QVQLQQSGAELTRPGASVNLSCKASGYTFTSYWMQWVKQRPGQGLEWIGAIYPGDGDTRFNQKFKGKATLTADESSSTAYMQLSSLASEDSAVYYCATYYRYDDYWGQGTTLTVSS
VL: QIVLTQSPAIMSASPGEKVTMTCSASSSVSYMHWYQQKSGTSPKRWIYDTSKLASGVPTRFSGSGSGTSYSLTISSMEAEDAATYYCQQWSSNPYTFGGGTKLEIK
On to B2, for which the “gMFIr HEK OE/par” value with human PVRIG on cells [2] was determined as 0.76. The “gMFIr Expi cyno OE/par” value in assay [12] and in [10] was 0.77 each time. In addition, the half-inhibitory concentration (IC50) in [5] and in assay [11] was 31.6 nM in each case.

B3: CPA.9.057 (Fab, V domains shown)
VH: QVQLQESGPGLVKPSETLSLTCTVSGGSISSSSYYWGWIRQPPGKGLEWIGSIYYSGSTYYNPSLKSRVTISVDTSKNQFSLKLSSVTAADTAVYYCARQGAAAGNPFDIWGQGTMVTVSS
VL: QSVLTQPPSVSGTPGQRVTISCSGSSSNIGSNFVYWHQQLTGTAPKLLIYRNTQRPSGVPDRFSGSKSGTSASLAIGGLRSEDEADYYCATWDDSLSAWVFGGGTKLTVL
notes: phage fab, campaign 2; fab form of CPA.9.057-H4; also called CPA.9.057 (fab)
In the case of B3, in the assay with human TIGIT on cells, the “MFIr (OE/Par) hTIGIT” value turned out to be 30.

B4: CHA.7.535 (antibody, V domains shown)
VH: EVQLQQSGPELVKPGASVKISCKTSGYTFTKNTMHWVRQSHGKSLEWIGGINPNSGGASFNQKFMGKATLTVDKSSSTAYMELRSLTSEDSAVYYCARDGYDGDWFFDVWGAGTTVTVSS
VL: DIQMNQSPFSLSASLGDTVTITCHASQNIYVWLSWYQQKPGNIPKLLIYKASDLHTGVPSRFSGSGSGTDFTLNISSLQPEDIATYYCQQGQSYPRTFGGGTKLEIK
Turning to B4, the “gMFIr Human CD8+ T cells” value in the assay with human PVRIG on cells [1] and with human PVRIG on cells [8] was 1.28 each time. Also, in the assay with human PVRIG on cells [2], the “gMFIr HEK OE/par” value was 40.4. Further, the “gMFIr Human CD56 int. NK” value with human PVRIG on cells [3] and in the assay with human PVRIG on cells [7] was 2.24 in each case. The EC50 with human PVRIG on cells [4] came to 3.67 nM. In addition, the IC50 in assay [5] and in assay [11] was 821 nM in each case. The “gMFIr Jurkat” value with human PVRIG on cells [6] came out at 2.79. Also, the “gMFIr Expi cyno OE/par” value in assay [9] and in assay [10] was 0.82 each time.

B5: CPA.9.059 (Fab, V domains shown)
VH: EVQLVETGGGLIQPGGSLRLSCAASGFTVSSNYMSWVRQAPGKGLEWVSVIYSGGSTYYADSVKGRFTISRDNSKNTLYLQMNSLRAEDTAVYYCARGARYSYGQYPYWGQGTLVTVSS
VL: DIQLTQSPSFLSASVGDRVTITCRASHDISSLFSWYQQKPGKAPKLLIYAASTLQTGVPSRFSGSASGTEFTLTISSLQPEDFATYYCLQLDSFPTWTFGQGTKVEIK
notes: phage fab, campaign 2; fab form of CPA.9.059 hIgG4 (m73); also called CPA.9.059 (fab)
Turning to B5, the “MFIr (OE/Par) hTIGIT” value with human TIGIT on cells amounted to 11.

B6: CHA.7.526 (antibody, V domains shown)
VH: QVQLKESGPGLVAPSQSLSITCTVSGFSLTAYNINWVRQPPGKGLEWLGMIWGDGNTDYNSPLKSRLTISKDNSKSQVFLKMDSLQTDDTARYYCARDLKVRRDSPYTMDYWGQGTSVTVSS
VL: NIMMTQSPSSLAVSAGEKVTMSCKSSQSVLYSSNQKNYLAWYQQKPGQSPKLLIYWASNRESGVPDRFTGSGSGTDFTLTISSVQAEDLAVYYCHQYLSSYTFGGGTKLEIK
As to B6, the “gMFIr Human CD8+ T cells” value in the assay with human PVRIG on cells [1] and in the assay with human PVRIG on cells [8] was 1.71 throughout. Also, in the assay with human PVRIG on cells [2], the “gMFIr HEK OE/par” value stood at 47.3. Moreover, the “gMFIr Human CD56 int. NK” value with human PVRIG on cells [3] and with human PVRIG on cells [7] was 2.08 in each case. In addition, in the assay with human PVRIG on cells [4], the 50% effective concentration (EC50) came to 2.99 nM. In addition, the IC50 in assay [5] and in assay [11] was 58.9 nM each time. Further, the “gMFIr Jurkat” value with human PVRIG on cells [6] is 3.98. Moreover, the “gMFIr Expi cyno OE/par” value in assay [9] and in [10] was 0.79 each time.

B7: CHA.7.503 (antibody, V domains shown)
VH: QVQLQQSGAELAKPGASVKMSCKASGYTFTSNWMHWVKQRPGQGLEWIGYINPSNGYTECNQKFRDKATLSADKSSSTAYMQLNSLTSADSAVYYCALMISAWLPYWGQGTLVTVSA
VL: DIVLTQSPASLAISLGQRATISCRASQSVSASSYSYVHWYQQKPGQPPKLLIKYASSLESGVPARFSGSGSGTDFTLNIHPVEEEDTATYYCLHTWEIPYTFGGGTKLEIK
Turning to B7, the “gMFIr Human CD8+ T cells” value with human PVRIG on cells [1] and in the assay with human PVRIG on cells [14] was 1.96 each time. Moreover, the “gMFIr HEK OE/par” value with human PVRIG on cells [2] was determined as 261. This molecule had an EC50 with human PVRIG on cells [4] of 1.05 nM. The “gMFIr Expi cyno OE/par” value in assay [12] and in assay [10] was 106 throughout. Also, the “gMFIr Jurkat” value with human PVRIG on cells [6] is 23.6. The “gMFIr Human CD56 int. NK” value in the assay with human PVRIG on cells [7] and with human PVRIG on cells [13] was 3.15 each time.

B8: CHA.7.502 (antibody, V domains shown)
VH: DVQLVESGGDLVQPGGSRKLSCTASGFTFSNFGMHWVRQAPEKGLEWVAYISSGSSTIYYADTVKGRFTISRDNPENTLFLQMTSLRSEDTAMYYCTRLDYYTNSYSMDHWGQGTSVTVSS
VL: QIVLTQSPALMSASPGEKVTLTCSASSSLPYIYWYQQKPGSSPKPWIYLTSNLASGVPARFSGSRSGTSYSLTISSVEAEDAATYYCQQWSSNPFTFGSGTKLEIK
B8: the “gMFIr Human CD8+ T cells” value in the assay with human PVRIG on cells [1] and with human PVRIG on cells [14] was 1.41 each time. Also, in the assay with human PVRIG on cells [2], the “gMFIr HEK OE/par” value came out at 72. Moreover, the EC50 with human PVRIG on cells [4] turned out to be 40.2 nM. The “gMFIr Expi cyno OE/par” value in assay [12] and in assay [10] was 60.5 throughout. The IC50 in assay [5] and in [11] was 39.9 nM in each case. Further, the “gMFIr Jurkat” value with human PVRIG on cells [6] came out at 6.21. Moreover, the “gMFIr Human CD56 int. NK” value with human PVRIG on cells [7] and with human PVRIG on cells [13] was 1.97 each time.

B9: CPA.9.018 (Fab, V domains shown)
VH: QVQLVESGGGLVQPGGSLRLSCAASGFTFSSYGMHWVRQAPGKGLEWVAFIRYDGSNKYYADSVKGRFTISRDNSKNTLYLQMNSLRAEDTAVYYCAKEMLVQDYYYMDVWGQGTTVTVSS
VL: DVVMTQSPLSLPVSPGEPASISCRSSQNLLHRNGINYLNWYLQKPGQSPQLLIYWGSNRASGVPDRFSGSGSGTDFTLKISRVEAEDVGVYYCMQGLQIPPTFGQGTKVDIK
notes: phage fab, campaign 1; fab form of CPA.9.018-H4; also called CPA.9.018 (fab)
Take B9: the “MFIr (OE/Par) hTIGIT” value with human TIGIT on cells was 16.
